Among the data in the Human Domainome abundance scans (Beltran et al. 2025) are abundance fitness values, retold here.

± gives the uncertainty stated by the source.

The chains are these.
B1: Protein C-ets-1, residues 55 to 135; numbered along this chain, P14921 (parent)
chain: GFTKEQQRLGIPKDPRQWTETHVRDWVMWAVNEFSLKGVDFQKFCMNGAALCALGKDCFLELAPDFVGDILWEHLEILQKE
B2: 3'-5' exoribonuclease 1, residues 65 to 114; numbered along this chain, Q8IV48 (parent)
chain: VYKEIAITNGCINRMSKEELRAKLSEFKLETRGVKDVLKKRLKNYYKKQK

The first data set covers variants of B1. Briefly: abundance fitness (aPCA) (normalised: wild type 0, dead -1); higher = more abundant; growth selection in yeast, the domain comes from the species named. Conditions: Homo sapiens.
Take GFTKEQQRLGIPKDPRQWTETHVRDWVMWAVNEFSLKGVDFQKFCMNGAALCALGKDCFLMLAPDFVGDILWEHLEILQKE [E61M]: the abundance fitness was -0.286 ± 0.079. Turning to GFTKEQQRLGIPKDPRQWTETHVRDWVMWAVNEFSLKGVDFQKFCDNGAALCALGKDCFLELAPDFVGDILWEHLEILQKE [M46D], the abundance fitness was -0.777 ± 0.12. Take GFTKEQQRLGIPKDPRQWTETHVRDWVMWAVNEFSLKGVDFQKFCVNGAALCALGKDCFLELAPDFVGDILWEHLEILQKE [M46V]: the abundance fitness is -0.234 ± 0.028. Still for that read-out and setting: then GFTKEQQRLGIPKDPRQWTETHVRDWVMWAVNEFSLKGVDFQKFCMNGAALCALGKDCFLELAPDFVGDILWEHLEWLQKE [I77W], with -0.033 ± 0.047; and GFTKEQQRLGIPKDPRQWTETHVRDWRMWAVNEFSLKGVDFQKFCMNGAALCALGKDCFLELAPDFVGDILWEHLEILQKE [V27R], with -0.876 ± 0.042. GFTKEQQRLGIPKDPRQWTETHVRDWVMWAVNEFSLKGVDFQKFCMNGAALCALGKDCFLELAPDFVGDILWEHVEILQKE [L75V]: the abundance fitness is -0.721 ± 0.059. Same read-out and setting: then GMTKEQQRLGIPKDPRQWTETHVRDWVMWAVNEFSLKGVDFQKFCMNGAALCALGKDCFLELAPDFVGDILWEHLEILQKE [F2M], with -0.238 ± 0.097; and TFTKEQQRLGIPKDPRQWTETHVRDWVMWAVNEFSLKGVDFQKFCMNGAALCALGKDCFLELAPDFVGDILWEHLEILQKE [G1T], with -0.262 ± 0.17. Same read-out and setting: then VFTKEQQRLGIPKDPRQWTETHVRDWVMWAVNEFSLKGVDFQKFCMNGAALCALGKDCFLELAPDFVGDILWEHLEILQKE [G1V], with -0.108 ± 0.055; and GFTKEQQRLGIPKDPRQWTETHVRDWVMWAVNEFSLKGVDFQKFCMNGAALCALGKDCFLELAPDFVGDILWEHLEICQKE [L78C], with -0.16 ± 0.034. Same read-out and setting: the value for GFTKEQQRLGIPKDPRQWTETHVRDWVMWAVNEFSLKGVDFQKFCMNGAALCALGKDCFLELAPDFVGDFLWEHLEILQKE [I70F] was -0.17 ± 0.055; that for GFTKEQQRLGIPKDPRQWTETHVRDWVMWAVNEFSLKGVDFQKFCMNGAALCSLGKDCFLELAPDFVGDILWEHLEILQKE [A53S] was 0.016 ± 0.031. For GFTKEQQRLGIPKDPRQWTETHVRDWVMWAVNEFSLKGVDFQKFCMNGAALCALGKDCFLELAPDFVSDILWEHLEILQKE [G68S], the abundance fitness was -0.124 ± 0.036.

Consider GFTKEQQRLGIPKDPRQWTETHVRDWVMWAVNEFSLKGVDFQKFCMNGAALCALGKDCFLELAPDFVGRILWEHLEILQKE [D69R], for which the abundance fitness is -0.09 ± 0.04. In the case of GFTKEQQRLGIPKDPRQWTETHVRDWVMWAVNEFSLKGVDFQKFCMDGAALCALGKDCFLELAPDFVGDILWEHLEILQKE [N47D], the abundance fitness is -0.007 ± 0.084.

With GFTKEQQRLGIPKDPRQWTETHHRDWVMWAVNEFSLKGVDFQKFCMNGAALCALGKDCFLELAPDFVGDILWEHLEILQKE [V23H], the abundance fitness was -0.838 ± 0.24.

With GFTKEQQRLGIPKDPRQWTETHVRDWVMWAVNEFSLKGVDFQKFCMNGAALCALGKDNFLELAPDFVGDILWEHLEILQKE [C58N], the abundance fitness came out at 0.033 ± 0.055. Same read-out and setting: then GFTKEQQRLGIPKDPRQWTETHVRDWVMWAVNEFSLKGVDFQKFCMNGAALCALGKDQFLELAPDFVGDILWEHLEILQKE [C58Q], with 0.045 ± 0.044; and GFTKECQRLGIPKDPRQWTETHVRDWVMWAVNEFSLKGVDFQKFCMNGAALCALGKDCFLELAPDFVGDILWEHLEILQKE [Q6C], with -0.113 ± 0.053; and GFTKEQQRLGIPKDPRVWTETHVRDWVMWAVNEFSLKGVDFQKFCMNGAALCALGKDCFLELAPDFVGDILWEHLEILQKE [Q17V], with 0.002 ± 0.036. The same measure, in the same setting: the value for GFTKEQQRLGIPKDPRYWTETHVRDWVMWAVNEFSLKGVDFQKFCMNGAALCALGKDCFLELAPDFVGDILWEHLEILQKE [Q17Y] was -0.154 ± 0.14; that for GFTKEQQRLGIPKDPRQWTETHVRDWVMWAVNEFSLKGVDFQKFCMNGAALCALGKDCFLELAPHFVGDILWEHLEILQKE [D65H] was -0.09 ± 0.076; that for GFTKEQQRLGIPKDPRQWTETHVRDWVMWAVNEFSLKGTDFQKFCMNGAALCALGKDCFLELAPDFVGDILWEHLEILQKE [V39T] was -0.387 ± 0.061. Consider GFTKEQQRLGIPKDPRQWTETHVRSWVMWAVNEFSLKGVDFQKFCMNGAALCALGKDCFLELAPDFVGDILWEHLEILQKE [D25S], for which the abundance fitness is -0.008 ± 0.028. Still for that read-out and setting: then GFTKEQQRLGIPKDPRQWTETHVRDWVMWAVYEFSLKGVDFQKFCMNGAALCALGKDCFLELAPDFVGDILWEHLEILQKE [N32Y], with -0.327 ± 0.077.

As for GFTKEQQRLGIPKDPRQWTETHVRDWVMWAVNEFSLKGVDFQKFCMNGAALCALGKDCFWELAPDFVGDILWEHLEILQKE [L60W], the abundance fitness is -0.43 ± 0.057. On the same count and under the same terms, the value for GFTKEQQRLGIPKDPRQWTETHVRDWVMWAVNEFSLKGVDFQKFCMNGAALCALGKMCFLELAPDFVGDILWEHLEILQKE [D57M] was -0.158 ± 0.05; that for GFTKEQQRLGIPKDPVQWTETHVRDWVMWAVNEFSLKGVDFQKFCMNGAALCALGKDCFLELAPDFVGDILWEHLEILQKE [R16V] was -0.055 ± 0.033; that for GFTKEQQRLGIPKDPRQWTETHVRDWVMWAVNEFSLKGVDFQKFCMNGAALCALGKDCFLELAPDFVGDILWEHLYILQKE [E76Y] was 0.029 ± 0.036. The same measure, in the same setting: the value for GFTKEQQRLGIPKDPRQETETHVRDWVMWAVNEFSLKGVDFQKFCMNGAALCALGKDCFLELAPDFVGDILWEHLEILQKE [W18E] was -0.814 ± 0.086.

Variants of B2 are the subject of a further data set. The data set is described as above. Conditions: Homo sapiens.
Turning to VYKEIAITNGCINRMSKEELRAKLSEFKLETRGVKDVLKKRLKNYYTKQK [K47T], the abundance fitness was -0.416 ± 0.047. VYKEIAITNGCINRMSKEELRAKLSEFKLETRGVKDVLKKRLKNYYQKQK [K47Q]: the abundance fitness is -0.325 ± 0.059.

VYKEIAITNGCINRMSKEELRAKLSEFKLETRGVKDVLKKRLKNYYWKQK [K47W]: the abundance fitness is -0.608 ± 0.043.

Turning to VYKEIAITNGCINRMSKEELRAKLSEFKLETRGVKDVLKKRLKNYYYKQK [K47Y], the abundance fitness is -0.533 ± 0.068.

As to VYKEIAITNGCINRMSKEELRAKLSEFKLETRGVKDVLKKRLKNYYVKQK [K47V], the abundance fitness was -0.422 ± 0.04. Still for that read-out and setting: then VYKEIAITNGCINRMSKEELRAKLSEFKLETRGVKDVLKKRLKNYYRKQK [K47R], with -0.132 ± 0.035; and VYKEIAITNGCINRMSKEELRAKLSEFKLETRGVKDVLKKRLKNYYKKGK [Q49G], with -0.306 ± 0.035; and VYKEIAITNGCINRMSKEELRAKLSEFKLETRGVKDVLKKRLKNYYKKRK [Q49R], with -0.221 ± 0.032. On the same count and under the same terms, then VYKEIAITNGCINRMSKEELRAKLSEFKLETRGVKDVLKKRLKNYYKKMK [Q49M], with -0.04 ± 0.068; and VYKEIAITNGCINRMSKEELRAKLSEFKLETRGVKDVLKKRLKNYYKKAK [Q49A], with -0.164 ± 0.04. Still for that read-out and setting: then VYKEIAITNGCINRMSKEELRAKLSEFKLETRGVKDVLKKRLKNYYKKCK [Q49C], with -0.154 ± 0.05; and VYKEIAITNGCINRMSKEELRAKLSEFKLETRGVKDVLKKRLKNYYKKWK [Q49W], with -0.206 ± 0.041.

As for VYKEIAITNGCINRMSKEELRAKLSEFKLETRGVKDVLKKRLKNYYKKLK [Q49L], the abundance fitness was -0.099 ± 0.039. Same read-out and setting: the value for VYKEIAITNGCINRMSKEELRAKLSEFKLETRGVKDVLKKRLKNYYKKVK [Q49V] was -0.182 ± 0.039.
